± gives the uncertainty stated by the source.

Experimental findings from the supplement of paper PMC7877785 are described below.

The nature of the data set: self-splicing fitness, log relative to wild type (ln ratio); higher = more splicing; Tetrahymena group I intron in knt gene, E. coli kanamycin selection, DiMSum; sequences stand for … in CUCUCU…GGAGGGAAAAGUUAUCAGGCAUGCACCUGGUAGCUAGUCUUUAAACCAAUAGAUUGCAUCGGUUUAAAAGGCAAGACCGUCAAAUUGCGGGAAAGGGGUCAACAGCCGUUCAGUACCAAGUCUCAGGGGAAACUUUGAGAUGGCCUUGCAAAGGGUAUGGUAAUAAGCUGACGGACAUGGUCCUAACCACGCAGCCAAGUCCUAAGUCAACAGAUCUUCUGUUGAUAUGGAUGCAGUUCACAGACUAAAUGUCGGUCGGGGAAGAUGUAUUCUUCUCAUAAGAUAUAGUCGGACCUCUCCUUAAUGGGAGCUAGCGGAUGAAGUGAUGCAACACUGGAGCCGCUGGGAACUAAUUUGUAUGCGAAAGUAUAUUGAUUAGUUUUGGAGUACUCGUGGUCG
The gist of the method: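 Library with all eight P1ex-region intron nucleotides randomised, intron inside the knt kanamycin-resistance gene on pET-22b(+), in E. coli BL21(DE3). Cells grew overnight at 37°C or 30°C on LB agar with or without 25 μg/mL kanamycin (plus 100 μg/mL carbenicillin, 50 μM IPTG, 0.2% rhamnose), in six replicate transformations. Pooled colonies were amplicon-sequenced on Illumina HiSeq 2500. DiMSum fitness is the error-weighted combination of wild-type-normalised replicate fold changes, kanamycin versus none.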

GUCAAGCAAUAUUACGAUAA: the “self-splicing fitness (ln)” value reads like this: (30 °C) -1.8 ± 0.14; (37 °C) -1.58 ± 0.15. As to UUCCAGCAAUAUUACGUCGG, the “self-splicing fitness (ln)” value by setting is: (30 °C) -3.28 ± 0.23; (37 °C) -3.13 ± 0.4. For GCAAAGCAAUAUUACGGCCA, in that order: -2.11 ± 0.24 and -0.962 ± 0.19.

Consider UGAUAGCAAUAUUACGUUGC, for which the “self-splicing fitness (ln)” value (30 °C) was -2.16 ± 0.17 and the “self-splicing fitness (ln)” value (37 °C) was -2.32 ± 0.28.

Regarding CACUAGCAAUAUUACGGCUU, the “self-splicing fitness (ln)” value (30 °C) was -3.4 ± 0.24 and the “self-splicing fitness (ln)” value (37 °C) was -1.91 ± 0.21. Consider GAAGAGCAAUAUUACGGAGU, for which the “self-splicing fitness (ln)” value (30 °C) is -3.07 ± 0.46 and the “self-splicing fitness (ln)” value (37 °C) was -2.47 ± 0.45. UGGAAGCAAUAUUACGAAGU: the “self-splicing fitness (ln)” value (30 °C) was -3.57 ± 0.35.

As for UGCGAGCAAUAUUACGUCCG, the “self-splicing fitness (ln)” value is -3.31 ± 0.4 (30 °C) and -0.194 ± 0.31 (37 °C). On to ACGUAGCAAUAUUACGCAUA, for which the “self-splicing fitness (ln)” value was -1.82 ± 0.13 (30 °C) and -1.2 ± 0.12 (37 °C). Take UAGAAGCAAUAUUACGAUUU: the “self-splicing fitness (ln)” value is, setting by setting: (30 °C) -0.745 ± 0.067; (37 °C) -1.11 ± 0.095. For AGAAAGCAAUAUUACGCUGC, in that order: -2.38 ± 0.2 and -1.52 ± 0.23. As to GGCAAGCAAUAUUACGGCGU, the “self-splicing fitness (ln)” value was -0.154 ± 0.088 (30 °C) and 0.316 ± 0.12 (37 °C).

As for AUGCAGCAAUAUUACGGUAG, the “self-splicing fitness (ln)” value (30 °C) is -3.81 ± 0.16 and the “self-splicing fitness (ln)” value (37 °C) was -2.4 ± 0.14.

As for CUAUAGCAAUAUUACGAGUG, the “self-splicing fitness (ln)” value is, setting by setting: (30 °C) -0.752 ± 0.071; (37 °C) 0.361 ± 0.1. The matching figures for AUAGAGCAAUAUUACGGCCA: -1.25 ± 0.15 and -1.02 ± 0.24. For GUAAAGCAAUAUUACGUGAA, in that order: -1.96 ± 0.1 and -1.39 ± 0.12. For AAGCAGCAAUAUUACGCGUG, in that order: -3.76 ± 0.14 and -2.25 ± 0.11. For the sequence ACGAAGCAAUAUUACGCUUC, the “self-splicing fitness (ln)” value is, setting by setting: (30 °C) -3.44 ± 0.19; (37 °C) -2.59 ± 0.2.

As for GACUAGCAAUAUUACGUUCA, the “self-splicing fitness (ln)” value runs as follows: (30 °C) -0.661 ± 0.11; (37 °C) -0.533 ± 0.12. For GGAUAGCAAUAUUACGAAGU, in that order: -2.68 ± 0.29 and -2.02 ± 0.25. As for GCUCAGCAAUAUUACGCAAA, the “self-splicing fitness (ln)” value reads like this: (30 °C) -1.15 ± 0.18; (37 °C) -0.688 ± 0.14. For GACUAGCAAUAUUACGCGAG, in that order: -2.49 ± 0.21 and -1.28 ± 0.15. The matching figures for GGCCAGCAAUAUUACGAUUA: -3.4 ± 0.21 and -2.05 ± 0.15. For ACAAAGCAAUAUUACGUGCG, in that order: -1.07 ± 0.066 and -0.382 ± 0.076. For ACGAAGCAAUAUUACGGUCA, the “self-splicing fitness (ln)” value is -1.35 ± 0.14 (30 °C) and -0.053 ± 0.13 (37 °C).

For the sequence GAAUAGCAAUAUUACGUAUU, the “self-splicing fitness (ln)” value (30 °C) is -2.18 ± 0.15 and the “self-splicing fitness (ln)” value (37 °C) was -1.45 ± 0.14. As to CUCGAGCAAUAUUACGCUGC, the “self-splicing fitness (ln)” value (30 °C) is -3.61 ± 0.42. As for AGGUAGCAAUAUUACGUUGC, the “self-splicing fitness (ln)” value (30 °C) was -3.874 ± 0.031 and the “self-splicing fitness (ln)” value (37 °C) is -3.06 ± 0.047.

UACAAGCAAUAUUACGUGGA: the “self-splicing fitness (ln)” value was -2.82 ± 0.15 (30 °C) and -2.27 ± 0.11 (37 °C). The matching figures for UGCAAGCAAUAUUACGCCCC: -0.548 ± 0.19 and -0.556 ± 0.32. The matching figures for UUCAAGCAAUAUUACGCCGG: -0.231 ± 0.097 and -0.469 ± 0.13. For CCCUAGCAAUAUUACGCGUG, in that order: -5.09 ± 0.41 and -1.06 ± 0.13. Consider GCUAAGCAAUAUUACGCAGG, for which the “self-splicing fitness (ln)” value is, setting by setting: (30 °C) -2.8 ± 0.26; (37 °C) -3.55 ± 0.39. The matching figures for AUCCAGCAAUAUUACGCAGA: -1.38 ± 0.11 and -0.448 ± 0.099. Take GGGCAGCAAUAUUACGUCAA: the “self-splicing fitness (ln)” value reads like this: (30 °C) 0.3 ± 0.08; (37 °C) 0.285 ± 0.088. For the sequence ACAGAGCAAUAUUACGCGCC, the “self-splicing fitness (ln)” value was -3.3 ± 0.36 (30 °C) and -1.83 ± 0.42 (37 °C). Regarding CUAUAGCAAUAUUACGAGUU, the “self-splicing fitness (ln)” value is -3.04 ± 0.16 (30 °C) and -0.864 ± 0.18 (37 °C). The matching figures for ACCAAGCAAUAUUACGCGUU: -1.91 ± 0.06 and -0.292 ± 0.075. GAAAAGCAAUAUUACGUAAA: the “self-splicing fitness (ln)” value is, setting by setting: (30 °C) -2.4 ± 0.13; (37 °C) -0.992 ± 0.14. For ACCAAGCAAUAUUACGUAGU, in that order: -2.49 ± 0.078 and -1.75 ± 0.088. For AUCUAGCAAUAUUACGUCAG, in that order: -3.18 ± 0.2 and -2.34 ± 0.2.

As to CGAGAGCAAUAUUACGGCGA, the “self-splicing fitness (ln)” value is, setting by setting: (30 °C) -2.72 ± 0.3; (37 °C) -1.28 ± 0.31. Turning to GACCAGCAAUAUUACGGCUG, the “self-splicing fitness (ln)” value (30 °C) was -3.68 ± 0.18 and the “self-splicing fitness (ln)” value (37 °C) was -3.41 ± 0.25. For AUUCAGCAAUAUUACGAAAU, in that order: -1 ± 0.091 and -0.557 ± 0.1. For CGACAGCAAUAUUACGGCUU, in that order: -3.12 ± 0.16 and -1.6 ± 0.14. The matching figures for CUCAAGCAAUAUUACGGGUU: -3.49 ± 0.17 and -1.4 ± 0.13. For the sequence AGAUAGCAAUAUUACGUGUU, the “self-splicing fitness (ln)” value reads like this: (30 °C) -2.97 ± 0.13; (37 °C) -1.1 ± 0.11. For CCGUAGCAAUAUUACGGUCA, in that order: -1.64 ± 0.12 and -2.27 ± 0.19. On to CACUAGCAAUAUUACGUGUG, for which the “self-splicing fitness (ln)” value is, setting by setting: (30 °C) -3.71 ± 0.14; (37 °C) -2.82 ± 0.16.

Turning to CGCAAGCAAUAUUACGCAUU, the “self-splicing fitness (ln)” value is -4.11 ± 0.19 (30 °C) and -3.12 ± 0.21 (37 °C). As for GUCCAGCAAUAUUACGUGCG, the “self-splicing fitness (ln)” value is -1.15 ± 0.085 (30 °C) and -1.14 ± 0.12 (37 °C).

Consider GUACAGCAAUAUUACGGACA, for which the “self-splicing fitness (ln)” value is -2.13 ± 0.12 (30 °C) and -1.13 ± 0.1 (37 °C). For GCAGAGCAAUAUUACGGCCG, in that order: -3.3 ± 0.24 and -2.02 ± 0.27. The matching figures for ACCGAGCAAUAUUACGUCGA: -3.13 ± 0.24 and -2.12 ± 0.15. The matching figures for CACUAGCAAUAUUACGAAAA: -3.29 ± 0.33 and -1.87 ± 0.26.

Turning to UAAAAGCAAUAUUACGCUCA, the “self-splicing fitness (ln)” value (30 °C) is -0.334 ± 0.11 and the “self-splicing fitness (ln)” value (37 °C) amounted to 0.128 ± 0.12. For CUCAAGCAAUAUUACGUUAG, in that order: -2.26 ± 0.062 and -1.47 ± 0.075. For UUAGAGCAAUAUUACGACUU, in that order: -1.32 ± 0.13 and -1.77 ± 0.19.

As for GGCCAGCAAUAUUACGGUGG, the “self-splicing fitness (ln)” value is, setting by setting: (30 °C) -2.52 ± 0.14; (37 °C) -1.85 ± 0.14.

On to AUCUAGCAAUAUUACGUUCC, for which the “self-splicing fitness (ln)” value is, setting by setting: (30 °C) -1.16 ± 0.18; (37 °C) -1.47 ± 0.25. The matching figures for CCUAAGCAAUAUUACGUACA: -3.4 ± 0.5 and -2.9 ± 0.38. The matching figures for AUGAAGCAAUAUUACGUCGA: -0.936 ± 0.1 and 0.22 ± 0.097.

As for ACGGAGCAAUAUUACGAAGA, the “self-splicing fitness (ln)” value (37 °C) was -0.799 ± 0.24. Turning to UAGUAGCAAUAUUACGCAUG, the “self-splicing fitness (ln)” value runs as follows: (30 °C) -1.58 ± 0.092; (37 °C) -0.443 ± 0.095. The matching figures for UCAAAGCAAUAUUACGCGUC: -3.15 ± 0.14 and -2.89 ± 0.18.

UAACAGCAAUAUUACGCUAG: the “self-splicing fitness (ln)” value by setting is: (30 °C) -1.81 ± 0.071; (37 °C) -0.992 ± 0.08.

As to UUUCAGCAAUAUUACGUUGU, the “self-splicing fitness (ln)” value by setting is: (30 °C) -3.23 ± 0.21; (37 °C) -2.06 ± 0.15. Regarding CAGCAGCAAUAUUACGCGCA, the “self-splicing fitness (ln)” value runs as follows: (30 °C) -0.471 ± 0.13; (37 °C) -0.346 ± 0.16. Regarding AGUUAGCAAUAUUACGUCAG, the “self-splicing fitness (ln)” value (30 °C) was -3.99 ± 0.29 and the “self-splicing fitness (ln)” value (37 °C) is -3.25 ± 0.19. For AUUCAGCAAUAUUACGCGGU, in that order: -3 ± 0.14 and -2.21 ± 0.15. For GCGGAGCAAUAUUACGAUGU, the “self-splicing fitness (ln)” value (30 °C) was -2.73 ± 0.26 and the “self-splicing fitness (ln)” value (37 °C) was -1.02 ± 0.22. For GGGAAGCAAUAUUACGGUUG, in that order: -4.02 ± 0.33 and -2.74 ± 0.22. CUGAAGCAAUAUUACGUUGA: the “self-splicing fitness (ln)” value was -4.04 ± 0.18 (30 °C) and -2.66 ± 0.21 (37 °C). For AAAGAGCAAUAUUACGUGGG, in that order: -3.99 ± 0.18 and -3.8 ± 0.2. As to GAUCAGCAAUAUUACGUUAU, the “self-splicing fitness (ln)” value runs as follows: (30 °C) -1.46 ± 0.07; (37 °C) -0.207 ± 0.092.
